Results taken from paper PMC9696605 (Viruses, 2022).
Where no end group is shown, it is not given here. [ ]: non-standard residue; d: D form. pT = C[C@@H](OP(=O)(O)O)[C@H](N)C(=O)O

Key:
[1] = target: T1, SH3 domain of human Fyn (Fyn-SH3), 15N-labelled (human, UniProt P06241 82-142); assay: NMR titration; settings: both partners purified
T1 construct: also called 15N-Fyn-SH3

[2] = target: human neural precursor cell expressed developmentally down-regulated protein 4-like WW3* domain (hNedd4L-WW3*) (human, UniProt Q96PU5 497-530); assay: ITC; settings: both partners purified
Sequence of human neural precursor cell expressed developmentally down-regulated protein 4-like WW3* domain (hNedd4L-WW3*) (Q96PU5 497-530): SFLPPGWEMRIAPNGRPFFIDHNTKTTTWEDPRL

T1 sequence (P06241 82-142): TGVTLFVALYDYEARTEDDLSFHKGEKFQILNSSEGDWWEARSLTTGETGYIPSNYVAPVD

Binder | Kd [1] | Kd [2]
MDRPR[pT]PPPSYSEVL (source: synthetic peptide, bought: Genscript) [pU24-6B(1-15), U24-6B peptide with phospho-threonine 6] | ≥ 5000 µM | 
MDRPRTPPPSYSEVL (source: synthetic peptide (Fmoc solid phase, C18 HPLC purified)) [U24-6B(1-15), 15-residue peptide of the N-terminal region of U24 from HHV-6B] | 500 ± 200 µM | 8.9 µM
MDPPRTPPPSYSEVL (source: synthetic peptide (Fmoc solid phase, C18 HPLC purified)) [U24-6A(1-15), 15-residue peptide of the N-terminal region of U24 from HHV-6A] |  | 8.5 µM
MDPPR[pT]PPPSYSEVL (source: synthetic peptide, bought: Genscript) [pU24-6A(1-15), U24-6A peptide with phospho-threonine 6] | ≥ 12000 µM | 
